Source: paper PMC3037356, “BosR (BB0647) Controls the RpoN-RpoS Regulatory Pathway and Virulence Expression in Borrelia burgdorferi by a Novel DNA-Binding Mechanism” (PLoS Pathogens, 2011)

Assays:
BosR (rBosR) [1] = target: T1, BosR (rBosR) (UniProt O51592 1-176); assay: EMSA; 20 mM Hepes pH 7.5, 50 mM KCl, 1 mM MgCl2, 1 mM DTT, 5% glycerol, 100 ug/ml BSA, 50 ug/ml poly[d(A-T)], 30 fmol probe in 20 ul, 37 C 30 min; details: protein: recombinant, tags: none (His6-SUMO tag removed by SUMO protease), chain copies: 2, blunt; for binding result: label: digoxigenin 3' end; for Kd: label: digoxigenin 3' end (terminal transferase)
[2] = target: the molecule itself; assay: SEC; purified BosR on a Superdex 200 column, calibrated with aldolase 158 kDa, ovalbumin 43 kDa and ribonuclease A 13.7 kDa; buffer A: 20 mM Tris, 20 mM NaCl, 100 mM L-arginine, pH 7.5
BosR (rBosR) [3] = target: T1, BosR (rBosR); assay: EMSA; binding not altered; 20 mM Hepes pH 7.5, 50 mM KCl, 1 mM MgCl2, 1 mM DTT, 5% glycerol, 100 ug/ml BSA, 50 ug/ml poly[d(A-T)], 30 fmol probe in 20 ul, 37 C 30 min; details: protein: recombinant; tags: none (His6-SUMO tag removed by SUMO protease); chain copies: 2; label: digoxigenin 3' end; blunt

| Binder | binding result (BosR (rBosR) [1]) | also measured |
| --- | --- | --- |
| ZM218 (ZM217 DR mutant) (dsDNA) DNA 1: AGTGTAAAAAGGCCAATCAATTTTTTCATTAAATATCCTTTTTATTTATTATGGTATTAA DNA 2: TTAATACCATAATAAATAAAAAGGATATTTAATGAAAAAATTGATTGGCCTTTTTACACT | no binding | – |
| ZM160 (5' of BS3) (dsDNA) DNA 1: TCACAATATTCAAGAAAGGGGAGAAAATATAATAACTATGAACATATTTAGTAATGAGGA DNA 2: TCCTCATTACTAAATATGTTCATAGTTATTATATTTTCTCCCCTTTCTTGAATATTGTGA | no binding | – |
| ZM147 (dsDNA) DNA 1: AAAAAGCTGAGATCTGTCGACATCCATGGTGGCACAGTTTTTGCATGAAAATTAAGTAGT DNA 2: ACTACTTAATTTTCATGCAAAAACTGTGCCACCATGGATGTCGACAGATCTCAGCTTTTT | no binding | – |
| ZM156 (BS1 3' DR) (dsDNA) DNA 1: GCTGAGATCTGTCGAATCAATTACAAAAAAGTAAATAATTCAAAAAATACTCCCCCTAAA DNA 2: TTTAGGGGGAGTATTTTTTGAATTATTTACTTTTTTGTAATTGATTCGACAGATCTCAGC | binds | – |
| ZM211 (ZM156 DR mutant) (dsDNA) DNA 1: GCTGAGATCTGTCGAATCAATTACAAAAAAGTAGGCCATTCAAAAAATACTCCCCCTAAA DNA 2: TTTAGGGGGAGTATTTTTTGAATGGCCTACTTTTTTGTAATTGATTCGACAGATCTCAGC | no binding | – |
| ZM132 (BS1) (dsDNA) DNA 1: GGCCTTGCCGATTTAATTTACAATCAATTACAAAAAAGTAAATAATTCAAAAAATACTCC DNA 2: GGAGTATTTTTTGAATTATTTACTTTTTTGTAATTGATTGTAAATTAAATCGGCAAGGCC | – | Kd (BosR (rBosR) [1]): 210 nM |
| Recombinant BosR (BB0647) (natural protein, BosR (BB0647), Fur/PerR homologue of Borrelia burgdorferi; bosR amplified with primers ZM69F and ZM69R and cloned into pET SUMO (pOY73); apparent mass ~18.7 kDa, as for native BosR; The protein contained 1.4 mol of zinc per mol of protein; also called rBosR; purified BosR; source: E. coli BL21-DE3, purified (Ni-NTA spin column, SUMO protease cleavage, Superdex 200); not shown: His6, N-terminal, …) MNDNIIDVHSALEKVGITNDPVLLKNLTSELGMKASHSRNRIILYIASNPKEYFTAKEVYNKLIKEIPSLSKATVYNTLNILKERNILKDIKTTDQKETKFYLSLASTIAHFKCNKCNQVHPIQLDDIKDILKDKLGENWETKSIEIIYSGHCNNCYKKDTHNNNNVPDENKEITL | – | stoichiometry N [2]: 2 |
| ZM149 (dsDNA) DNA 1: TTTAGTTTAAAACCATTTTTAAATTAAATTGGCACAGTTTTTGCATTTTAACAGGCAAAA DNA 2: TTTTGCCTGTTAAAATGCAAAAACTGTGCCAATTTAATTTAAAAATGGTTTTAAACTAAA | binds | – |
| ZM157 (-24/-12 mutant) (dsDNA) DNA 1: TTTAGTTTAAAACCATTTTTAAATTAAATTTTCACAGTTTTTGAATTCCAACAGGCAAAA DNA 2: TTTTGCCTGTTGGAATTCAAAAACTGTGAAAATTTAATTTAAAAATGGTTTTAAACTAAA | – | binding result (BosR (rBosR) [3]): binds |
| ZM213 (DR1 mutant) (dsDNA) DNA 1: ATTTTATATCCTAGGCCGTTTAAAACCATTTTTAAATTAAATTGGCACAGTTTTTGCATG DNA 2: CATGCAAAAACTGTGCCAATTTAATTTAAAAATGGTTTTAAACGGCCTAGGATATAAAAT | binds | – |
| ZM223 (DR1 and DR2 mutant) (dsDNA) DNA 1: ATTTTATATCCTAGGCCGTTTAAAACCATTTTTAGGCCAAATTGGCACAGTTTTTGCATG DNA 2: CATGCAAAAACTGTGCCAATTTGGCCTAAAAATGGTTTTAAACGGCCTAGGATATAAAAT | no binding | – |
| ZM127 (BS2) (dsDNA) DNA 1: TTTAGTTTAAAACCATTTTTAAATTAAATTGGCACAGTTTTTGCATGAAAATTAAGTAGT DNA 2: ACTACTTAATTTTCATGCAAAAACTGTGCCAATTTAATTTAAAAATGGTTTTAAACTAAA | – | Kd (BosR (rBosR) [1]): 36.6 nM |
| ZM155 (BS1 5' DR) (dsDNA) DNA 1: CTCAAAGCTTTGGCCTTGCCGATTTAATTTACAATCAATTACAAAGCTGAGATCTGTCGA DNA 2: TCGACAGATCTCAGCTTTGTAATTGATTGTAAATTAAATCGGCAAGGCCAAAGCTTTGAG | binds | – |
| ZM210 (ZM155 DR mutant) (dsDNA) DNA 1: CTCAAAGCTTTGGCCTTGCCGATTTGGCCTACAATCAATTACAAAGCTGAGATCTGTCGA DNA 2: TCGACAGATCTCAGCTTTGTAATTGATTGTAGGCCAAATCGGCAAGGCCAAAGCTTTGAG | no binding | – |
| ZM126 (dsDNA) DNA 1: TTGCATGGAAATTAAGTAGTAAAAACTTAATCACAATATTCAAGAAAGGGGAGAAAATAT DNA 2: ATATTTTCTCCCCTTTCTTGAATATTGTGATTAAGTTTTTACTACTTAATTTCCATGCAA | no binding | – |
| ZM166 (-24/-12 and DR mutant) (dsDNA) DNA 1: TTTAGTTTAAAACCATTTTTAGGCCAAATTTTCACAGTTTTTGAATTCCAACAGGCAAAA DNA 2: TTTTGCCTGTTGGAATTCAAAAACTGTGAAAATTTGGCCTAAAAATGGTTTTAAACTAAA | no binding | – |
| ZM216 (ZM215 DR mutant) (dsDNA) DNA 1: TGGTTTAGATGGCCTTTTTTTCTCAATTCAGCAATTTCTGAATATAGAATTTTCATATCT DNA 2: AGATATGAAAATTCTATATTCAGAAATTGCTGAATTGAGAAAAAAAGGCCATCTAAACCA | no binding | – |
| ZM219 (bosR upstream) (dsDNA) DNA 1: AAAAAAATATGAAAATAAATAAATAATAAGTAGTAAAATATTAATAACTGGGTATAAAAT DNA 2: ATTTTATACCCAGTTATTAATATTTTACTACTTATTATTTATTTATTTTCATATTTTTTT | binds | – |
| ZM220 (ZM219 DR mutant) (dsDNA) DNA 1: AAAAAAATATGAAAATGGCCAAATAATAAGTAGTAAAATATTAATAACTGGGTATAAAAT DNA 2: ATTTTATACCCAGTTATTAATATTTTACTACTTATTATTTGGCCATTTTCATATTTTTTT | no binding | – |
